Experimental data from patent US20250340613A1 (JOINT STOCK COMPANY BIOCAD, published 2025).
Values belong to the binder of their own block, whether it stands above or below them.

How the values were obtained:
[1] = biological target: T1, hCD38-Avi, ADP-ribosyl cyclase/cyclic ADP-ribose hydrolase 1 (Homo sapiens) aa 43-300 (Homo sapiens, UniProt P28907 43-300); test: BLI Octet RED 384; antibody on ProA sensor, antigen 30 ug/ml
T1 construct: range 43-300; not shown: Avi tag as the name implies
T1 sequence (looked up): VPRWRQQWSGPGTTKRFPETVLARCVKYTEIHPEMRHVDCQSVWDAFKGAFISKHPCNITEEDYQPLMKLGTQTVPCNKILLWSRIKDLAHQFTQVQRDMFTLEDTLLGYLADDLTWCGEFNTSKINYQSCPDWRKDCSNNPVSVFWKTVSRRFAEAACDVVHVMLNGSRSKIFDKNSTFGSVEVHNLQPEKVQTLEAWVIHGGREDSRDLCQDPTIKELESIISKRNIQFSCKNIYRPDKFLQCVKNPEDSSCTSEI

[2] = biological target: T2, C-Avi-His-TEVs-HSA_hBCMA, Tumor necrosis factor receptor superfamily member 17 (Homo sapiens) aa 1-54 (Homo sapiens, UniProt Q02223 1-54); test: as above
T2 construct: range 1-54; not shown: Avi, His, TEV site and HSA parts as the name implies
T2 sequence (looked up): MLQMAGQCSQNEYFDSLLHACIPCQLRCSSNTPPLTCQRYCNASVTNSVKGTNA

[3] = biological target: T3, extracellular domain of the human PD-1 protein (hPD1ex-H6F) (Homo sapiens, UniProt Q15116 21-170); test: BLI Octet RED 384; antibody on ProA sensor, antigen in solution; 1:1 global fit
T3 construct: Molecular weight 20.6 kDa; made in CHO cells; also called hPDlex-H6F; not shown: C-terminal His and FLAG tags
Description: (§1) The experiments were carried out using a kinetic buffer solution (hereinafter referred to as 1×KB) having the following formulation: 4.3 mM Na₂HPO₄; 136.9 mM NaCl, 1.5 mM KH₂PO₄; 2.7 mM KCl; the volume fraction of the added Tween 20 was 0.1%; the mass fraction of the added BSA (bovine serum albumin) was 0.1%; pH 7.4. Before the measurement, the ProA sensors were regenerated with a solution of 50 mM glycine and hydrochloric acid, pH 1.8 (5 seconds in the regenerating solution, 5 seconds in 1×KB, three repetitions). In the case of the hPD1ex-H6F and hCSF1R_His antigens, the Protein A (ProA) biosensors (ForteBio) were immersed in a solution with antibodies at a concentration of 10 μg/ml for 60 seconds to immobilize same. The baseline was recorded in 1×KB for 60 seconds. The sensors loaded with the antibody were then immersed into wells containing a solution of the target antigen (analyte) in a kinetic buffer for 90 seconds. Measurements were performed for solutions with hPDlex-H6F analyte at concentrations of 2.50 μg/ml (121.4 nM), 1.25 μg/ml (60.7 nM), 0.625 μg/ml (30.35 nM). […] Then we detected complex dissociation in 1×KB for 210 s for hPDlex-H6F, 300 s for hCSF1R_His.
(§2) All measurements were carried out at 30° C., orbital mixing speed was 1,000 revolutions per minute.
(§3) To obtain numerical values of kinetic constants (kₒₙ is the on/association rate constant, kdis is the dissociation rate constant, KD is the equilibrium dissociation constant or affinity constant), the resulting sensograms were processed according to the 1:1 interaction model using Global Fit (selection of one set of kon, kdis, KD constants to analyze several sensograms of different concentrations) of the ForteBio Octet Data Analysis 9.0 software.

[4] = biological target: T4, hAng2_H6F, Angiopoietin-2 (Homo sapiens) aa 19-496 (Homo sapiens, UniProt O15123 19-496); test: BLI Octet RED 384; antibody on ProA sensor, antigen 30 ug/ml (510.2 nM); response at end of association
T4 construct: also called hAng-H6F; not shown: His and FLAG tags implied by the name 'H6F'
T4 sequence: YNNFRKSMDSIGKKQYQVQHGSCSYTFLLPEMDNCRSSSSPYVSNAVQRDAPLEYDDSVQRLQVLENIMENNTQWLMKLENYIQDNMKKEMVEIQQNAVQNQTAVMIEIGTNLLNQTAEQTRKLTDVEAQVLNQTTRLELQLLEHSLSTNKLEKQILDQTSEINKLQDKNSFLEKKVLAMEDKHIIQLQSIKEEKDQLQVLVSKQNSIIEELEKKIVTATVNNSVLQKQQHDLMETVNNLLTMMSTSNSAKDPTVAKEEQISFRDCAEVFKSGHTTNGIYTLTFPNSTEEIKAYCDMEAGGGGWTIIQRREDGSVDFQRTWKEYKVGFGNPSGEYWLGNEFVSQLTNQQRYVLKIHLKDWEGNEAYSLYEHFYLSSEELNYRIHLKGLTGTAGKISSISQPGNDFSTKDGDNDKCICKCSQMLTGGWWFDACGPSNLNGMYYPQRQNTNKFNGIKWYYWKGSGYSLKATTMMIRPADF
Description: Experimental study of nonspecific binding of bispecific chimeric antibodies to non-target antigens was performed on Forte Bio Octert RED 384. Protein A (ProA) biosensors (ForteBio) were immersed into a solution containing antibodies at a concentration of 10 μg/ml for 150 seconds to immobilize same. The baseline was recorded in a 1×KB solution for 30 seconds. The antibody-loaded sensors were then immersed into wells containing non-target antigens at a concentration of 30 μg/ml for 150 seconds. Complex dissociation was then recorded for 30 seconds.
The reference sensors went through all the steps as the sensors used to record analyte sensograms did, with the exception of the association step—at the association step, the sensors were immersed in a kinetic buffer solution without analyte (the reference sensor signals were measured in parallel with the recording of the main sensograms). The reference signal was subtracted from the signal received on sensors interacting with the analyte during the processing of sensograms.
Sensograms were processed using ForteBio Octet Data Analysisn 9.0 software. To report no non-specific interaction, the recorded signal level was checked at the end of the association step (the response parameter).

[5] = biological target: T5, extracellular domain of the human CSF1R protein (hCSF1R_His) (Homo sapiens, UniProt P07333 20-512); test: BLI Octet RED 384; antibody on ProA sensor, antigen in solution; 1:1 global fit
T5 construct: range 20-512; Molecular weight 57.4 kDa; made in CHO cells; also called hCSF1_His; not shown: C-terminal His and FLAG tags
Description: as §1, §2, §3

T3 sequence (Q15116 21-170 limits assumed, form in doubt): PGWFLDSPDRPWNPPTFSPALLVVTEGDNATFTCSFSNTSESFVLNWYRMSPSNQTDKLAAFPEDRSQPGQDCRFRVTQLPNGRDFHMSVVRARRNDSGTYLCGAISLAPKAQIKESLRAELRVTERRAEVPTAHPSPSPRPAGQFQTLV
T5 sequence (P07333 20-512 limits assumed): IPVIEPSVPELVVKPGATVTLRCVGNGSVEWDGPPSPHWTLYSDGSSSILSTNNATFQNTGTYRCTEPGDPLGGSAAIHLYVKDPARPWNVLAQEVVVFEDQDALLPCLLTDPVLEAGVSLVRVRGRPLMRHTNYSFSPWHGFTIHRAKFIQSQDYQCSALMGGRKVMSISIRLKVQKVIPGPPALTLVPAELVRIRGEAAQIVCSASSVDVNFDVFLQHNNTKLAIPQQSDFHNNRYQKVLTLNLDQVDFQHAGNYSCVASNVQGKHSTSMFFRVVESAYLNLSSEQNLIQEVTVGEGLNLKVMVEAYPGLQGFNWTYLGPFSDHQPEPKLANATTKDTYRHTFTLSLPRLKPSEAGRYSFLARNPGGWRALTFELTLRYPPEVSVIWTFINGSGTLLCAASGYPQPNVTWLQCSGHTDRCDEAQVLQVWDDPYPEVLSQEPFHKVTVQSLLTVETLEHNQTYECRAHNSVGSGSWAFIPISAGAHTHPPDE

- binding result [1]: no binding (tested: 854.7 nM)
- Kd [3]: 5.69 nM
- koff [3]: 0.00101 s⁻¹
- kon [3]: 178000 M⁻¹ s⁻¹
- Signal level (nm) [4]: -0.0194 nm
B1: 02-005, bivalent bispecific chimeric antibody that specifically binds to PD1 and CD20 (bispecific antibody, human IgG1, kappa, L234A L235A)
heavy 1: EVQLVESGGGLVQPGGSLRLSCAASGYTFTSYNMHWVRQAPGKGLEWVGAIYPGNGDTSYNQKFKGRFTISVDKSKNTLYLQMNSLRAEDTAVYYCARVVYYSNSYWYFDVWGQGTLVTVSSASTKGPSVFPLAPSSKSTSGGTAALGCLVKDYFPEPVTVSWNSGALTSGVHTFPAVLQSSGLYSLSSVVTVPSSSLGTQTYICNVNHKPSNTKVDKRVEPKSCDKTHTCPPCPAPEAAGGPSVFLFPPKPKDTLYITREPEVTCVVVDVSHEDPEVKFNWYVDGVEVHNAKTKPREEQYNSTYRVVSVLTVLHQDWLNGKEYKCKVSNKALPAPIEKTISKAKGQPREPQVCTLPPSRDELTKNQVSLSCAVKGFYPSDIAVEWESNGQPENNYKTTPPVLDSDGSFFLVSKLTVDKSRWQQGNVFSCSVMHEALHNHYTQKSLSLSPGK
light 1: DIQMTQSPSSLSASVGDRVTITCRASSSVSYMHWYQQKPGKAPKPLIYAPSNLASGVPSRFSGSGSGTDFTLTISSLQPEDFATYYCQQWSFNPPTFGQGTKVEIKRTVAAPSVFIFPPSDEQLKSGTASVVCLLNNFYPREAKVQWKVDNALQSGNSQESVTEQDSKDSTYSLSSTLTLSKADYEKHKVYACEVTHQGLSSPVTKSFNRGEC
heavy 2: not shown
light 2: QPVLTQPLSVSVALGQTARITCGGNNIGSKNVHWYQQKPGQAPVLVIYRDSNRPSGIPERFSGSNSGNTATLTISRAQAGDEADYYCQVWDSSTAVFGTGTKLTVLQQRQVKPEAWLSSGPSPGPGRLQLVCHVSGFYPKPVWVMWMRGEQEQQGTQLGDILPNANWTWYLRATLDVADGEAAGLSCRVKHSSLEGQDIILYWRGSC
notes: Produced in CHO cells
- binding result [2]: no binding (tested: 391.2 nM)

- binding result [1]: no binding (tested: 854.7 nM)
- Kd [3]: 4.49 nM
- koff [3]: 0.00109 s⁻¹
- kon [3]: 242000 M⁻¹ s⁻¹
- Kd [5]: 0.831 nM
- koff [5]: 0.000314 s⁻¹
- kon [5]: 378000 M⁻¹ s⁻¹
- Signal level (nm) [4]: -0.0079 nm
B2: 02-007, bivalent bispecific chimeric antibody that specifically binds to PD1 and CSF1R (bispecific antibody, human IgG1, kappa, L234A L235A)
heavy 1: QVQLVESGGGLVRPGGSLRLSCAASEFTFDDYAMSWVRQAPGKGLEWVSAISWNGGSTNYADSVKGRFTISRDNAKNSLYLQMNSLRAEDTALYYCASTVEVAHRRLYKYLEVWGQGTLVTVSSASTKGPSVFPLAPSSKSTSGGTAALGCLVKDYFPEPVTVSWNSGALTSGVHTFPAVLQSSGLYSLSSVVTVPSSSLGTQTYICNVNHKPSNTKVDKRVEPKSCDKTHTCPPCPAPEAAGGPSVFLFPPKPKDTLYITREPEVTCVVVDVSHEDPEVKFNWYVDGVEVHNAKTKPREEQYNSTYRVVSVLTVLHQDWLNGKEYKCKVSNKALPAPIEKTISKAKGQPREPQVCTLPPSRDELTKNQVSLSCAVKGFYPSDIAVEWESNGQPENNYKTTPPVLDSDGSFFLVSKLTVDKSRWQQGNVFSCSVMHEALHNHYTQKSLSLSPGK
light 1: QAGLTQPPSVSVAPGQTARITCGGNNIGSKSVHWYQQKPGQAPVLVVYGDSDRPSGIPERFSGSNSGNTATLTISRVEAGDEADYYCQVWDISSDHVVFGGGTQLTVLRTVAAPSVFIFPPSDEQLKSGTASVVCLLNNFYPREAKVQWKVDNALQSGNSQESVTEQDSKDSTYSLSSTLTLSKADYEKHKVYACEVTHQGLSSPVTKSFNRGEC
heavy 2: not shown
light 2: B1 light 2
notes: Produced in CHO cells
- binding result [2]: no binding (tested: 391.2 nM)

- binding result [1]: no binding (tested: 854.7 nM)
- Kd [3]: 2.51 nM
- koff [3]: 0.000691 s⁻¹
- kon [3]: 275000 M⁻¹ s⁻¹
- Kd [5]: 0.797 nM
- koff [5]: 0.000286 s⁻¹
- kon [5]: 359000 M⁻¹ s⁻¹
- Signal level (nm) [4]: -0.0239 nm
B3: 02-006, bivalent bispecific chimeric antibody that specifically binds to PD1 and CSF1R (bispecific antibody, human IgG1, kappa, L234A L235A)
heavy 1: QVQLVQSGGGLVQPGGSLRLSCAASGFTFSSYWMYWVRQVPGKGLEWVSAIDTGGGRTYYADSVKGRFAISRVNAKNTMYLQMNSLRAEDTAVYYCARDEGGGTGWGVLKDWPYGLDAWGQGTLVTVSSASTKGPSVFPLAPSSKSTSGGTAALGCLVKDYFPEPVTVSWNSGALTSGVHTFPAVLQSSGLYSLSSVVTVPSSSLGTQTYICNVNHKPSNTKVDKRVEPKSCDKTHTCPPCPAPEAAGGPSVFLFPPKPKDTLYITREPEVTCVVVDVSHEDPEVKFNWYVDGVEVHNAKTKPREEQYNSTYRVVSVLTVLHQDWLNGKEYKCKVSNKALPAPIEKTISKAKGQPREPQVCTLPPSRDELTKNQVSLSCAVKGFYPSDIAVEWESNGQPENNYKTTPPVLDSDGSFFLVSKLTVDKSRWQQGNVFSCSVMHEALHNHYTQKSLSLSPGK
light 1: QPVLTQPLSVSVALGQTARITCGGNNIGSKNVHWYQQKPGQAPVLVIYRDSNRPSGIPERFSGSNSGNTATLTISRAQAGDEADYYCQVWDSSTAVFGTGTKLTVLQRTVAAPSVFIFPPSDEQLKSGTASVVCLLNNFYPREAKVQWKVDNALQSGNSQESVTEQDSKDSTYSLSSTLTLSKADYEKHKVYACEVTHQGLSSPVTKSFNRGEC
heavy 2: not shown
light 2: QAGLTQPPSVSVAPGQTARITCGGNNIGSKSVHWYQQKPGQAPVLVVYGDSDRPSGIPERFSGSNSGNTATLTISRVEAGDEADYYCQVWDISSDHVVFGGGTQLTVLQRQVKPEAWLSSGPSPGPGRLQLVCHVSGFYPKPVWVMWMRGEQEQQGTQLGDILPNANWTWYLRATLDVADGEAAGLSCRVKHSSLEGQDIILYWRGSC
notes: Produced in CHO cells
- binding result [2]: no binding (tested: 391.2 nM)
